In patent US20150322152A1 (INSTITUT PASTEUR, published 2015):

B1: anti-hFcγRI.1 monoclonal antibody (antibody, mouse IgG2a, V domains shown)
VH: EVQLQESGPGLVQPSQSLSITCTVSGFSLTTYGVHWVRQSPGKGLEWLGMIWSGGSTDYNAAFISRLSISKDNSKSQVFFKMNSLQADDTAIYYCAREWFAYWGQGTSVTVSS
VL: ELVMTQSPASLSASVGETVTITCRASENIYSYLAWYQQKQGKSPQLLVYSAKTLAEGVPSRFSGSGSGTQFSLKINSLQPEDFGSYYCQHHYGTPYTFGGGTKMEIK
notes: Mouse IgG2a; IgG purified by Protein G from hybridoma supernatant; also called anti-hFcγR1.1; hFcγRI.1 mAb

Columns and labels:
[1] = target: human FcγRI receptor (immobilized for SPR; form not stated) (human) (UniProt P12314); test: SPR, IgG injected onto immobilized hFcγRI
[2] = target: human FcγRI receptor (immobilized for SPR; form not stated) (human) (UniProt P12314); test: SPR, IgG injected onto immobilized hFcγRI; remark: listed apart in the source
[3] = target: human FcγRI receptor (immobilized for SPR; form not stated) (human) (UniProt P12314); test: SPR on immobilized hFcγRI (summary sentence; the table prints 41)
[4] = target: T1, human FcγRI receptor (immobilized for SPR; form not stated) (human, UniProt P12314 16-288, limits assumed); test: method not stated
T1 construct: also called hFcγRI; immobilized hFcγRI
T1 sequence (P12314 16-288 limits assumed): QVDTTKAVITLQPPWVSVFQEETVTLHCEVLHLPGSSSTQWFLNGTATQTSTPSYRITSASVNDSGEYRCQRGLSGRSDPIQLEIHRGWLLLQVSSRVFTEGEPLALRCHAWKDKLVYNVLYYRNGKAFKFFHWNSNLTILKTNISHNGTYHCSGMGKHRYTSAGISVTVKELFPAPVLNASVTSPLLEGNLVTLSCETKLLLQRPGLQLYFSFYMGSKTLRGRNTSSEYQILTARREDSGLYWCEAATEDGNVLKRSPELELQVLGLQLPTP

Sequence of human FcγRI receptor (immobilized for SPR; form not stated) (human) (P12314 16-288 limits assumed): as above

Row | Molecule | Half life [1] | Kd [1] | koff [1] | kon [1] | Ka [2] | Kd [2] | Kd [3] | Ka [4]
1 | human IgG1 (antibody) | 3.6 min | 41 nM | 0.0014 s⁻¹ | 35000 M⁻¹ s⁻¹ | 2.5e+07 M⁻¹ | 40 nM | 40 nM | 
2 | mouse IgG2a (antibody) | 4.52 min | 38 nM | 0.0011 s⁻¹ | 36000 M⁻¹ s⁻¹ | 2.5e+07 M⁻¹ | 40 nM |  | 
3 | B1 |  |  |  |  |  |  |  | 1.5e+09 M⁻¹
